Measured values published in patent publication US20030068675, “Position dependent recognition of GNN nucleotide triplets by zinc fingers” (published 2003).

Assays:
Experiment in all cases: EMSA
Conditions in all cases: tags: MBP fusion
[1] = target: ZFP SBS#1244 (synthetic)
Method in brief: (§1)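 Purified ZFP was titrated against labeled double-stranded target (1 nM or lower, at least 10-fold below expected Kd) carrying the natural binding site with flanks. Binding buffer was 10 mM Tris pH 7.5, 100 mM KCl, 1 mM MgCl2, 0.1 mM ZnCl2, 5 mM DTT, 10% glycerol, 0.02% BSA, with equilibration for at least 45 min. Bound and free target were separated on a 10% polyacrylamide gel.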

[2] = target: T1, ZFP SBS#1245 (synthetic)
T1 chain: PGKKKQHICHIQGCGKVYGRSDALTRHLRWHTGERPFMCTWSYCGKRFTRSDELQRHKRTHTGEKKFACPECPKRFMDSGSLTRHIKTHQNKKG
Method in brief: as §1

[3] = target: T2, ZFP SBS#1259 (synthetic)
T2 chain: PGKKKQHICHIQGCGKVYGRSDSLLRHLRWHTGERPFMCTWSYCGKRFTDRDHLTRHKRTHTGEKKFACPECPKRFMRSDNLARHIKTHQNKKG
Method in brief: as §1

[4] = target: T3, ZFP SBS#1260 (synthetic)
T3 chain: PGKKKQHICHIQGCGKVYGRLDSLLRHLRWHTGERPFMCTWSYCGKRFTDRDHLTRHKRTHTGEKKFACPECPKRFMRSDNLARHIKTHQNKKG
Method in brief: as §1

[5] = target: T4, ZFP SBS#1240 (synthetic, UniProt P08047)
T4 chain: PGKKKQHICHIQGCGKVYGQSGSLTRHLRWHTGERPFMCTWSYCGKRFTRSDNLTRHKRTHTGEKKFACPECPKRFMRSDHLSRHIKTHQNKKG
Method in brief: as §1

[6] = target: ZFP SBS#998 (synthetic)
Sequence of ZFP SBS#998 (synthetic) (chain, as listed by the source): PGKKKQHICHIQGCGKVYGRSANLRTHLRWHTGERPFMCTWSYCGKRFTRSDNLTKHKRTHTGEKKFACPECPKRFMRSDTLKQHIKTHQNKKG
Method in brief: as §1

[7] = target: T5, ZFP SBS#1004 (synthetic)
T5 chain: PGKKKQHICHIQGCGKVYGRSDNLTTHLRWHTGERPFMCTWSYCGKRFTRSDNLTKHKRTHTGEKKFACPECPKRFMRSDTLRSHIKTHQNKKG
Method in brief: as §1

[8] = target: T6, ZFP SBS#1255 (synthetic)
T6 chain: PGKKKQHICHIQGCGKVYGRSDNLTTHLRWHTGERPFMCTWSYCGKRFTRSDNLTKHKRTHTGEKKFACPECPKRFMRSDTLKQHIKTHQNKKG
Method in brief: as §1

[9] = target: T7, ZFP SBS#1020 (synthetic)
T7 chain: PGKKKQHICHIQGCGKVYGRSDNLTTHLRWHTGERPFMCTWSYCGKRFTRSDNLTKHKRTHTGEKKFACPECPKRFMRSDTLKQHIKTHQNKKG
Method in brief: as §1

[10] = target: T8, ZFP SBS#1003 (synthetic)
T8 chain: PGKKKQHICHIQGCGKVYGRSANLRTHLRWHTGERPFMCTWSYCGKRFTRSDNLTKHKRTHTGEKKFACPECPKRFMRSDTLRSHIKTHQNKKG
Method in brief: as §1

[11] = target: ZFP SBS#1250 (synthetic)
Sequence of ZFP SBS#1250 (synthetic) (chain, as listed by the source): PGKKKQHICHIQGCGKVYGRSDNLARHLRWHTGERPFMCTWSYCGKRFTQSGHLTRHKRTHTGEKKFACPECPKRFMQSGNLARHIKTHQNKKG
Method in brief: as §1

[12] = target: ZFP SBS#1237 (synthetic)
Sequence of ZFP SBS#1237 (synthetic) (chain, as listed by the source): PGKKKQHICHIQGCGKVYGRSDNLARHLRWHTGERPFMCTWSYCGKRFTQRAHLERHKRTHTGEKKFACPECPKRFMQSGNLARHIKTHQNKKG
Method in brief: as §1

[13] = target: ZFP SBS#1236 (synthetic)
Sequence of ZFP SBS#1236 (synthetic) (chain, as listed by the source): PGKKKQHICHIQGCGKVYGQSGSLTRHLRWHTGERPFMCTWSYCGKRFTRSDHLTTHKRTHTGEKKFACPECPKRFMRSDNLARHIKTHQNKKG
Method in brief: as §1

[14] = target: ZFP SBS#1234 (synthetic)
Sequence of ZFP SBS#1234 (synthetic) (chain, as listed by the source): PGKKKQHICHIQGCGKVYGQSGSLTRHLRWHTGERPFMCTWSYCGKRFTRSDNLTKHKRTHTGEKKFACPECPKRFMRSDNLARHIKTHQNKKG
Method in brief: as §1

[15] = target: T9, ZFP SBS#1278 (synthetic)
T9 chain: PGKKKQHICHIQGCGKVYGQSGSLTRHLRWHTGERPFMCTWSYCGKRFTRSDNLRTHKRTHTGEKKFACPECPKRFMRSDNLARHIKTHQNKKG
Method in brief: as §1

[16] = target: T10, ZFP SBS#1277 (synthetic)
T10 chain: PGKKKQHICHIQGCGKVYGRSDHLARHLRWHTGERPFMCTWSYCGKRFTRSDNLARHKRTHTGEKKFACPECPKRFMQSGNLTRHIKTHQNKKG
Method in brief: as §1

[17] = target: T11, ZFP SBS#1247 (synthetic)
T11 chain: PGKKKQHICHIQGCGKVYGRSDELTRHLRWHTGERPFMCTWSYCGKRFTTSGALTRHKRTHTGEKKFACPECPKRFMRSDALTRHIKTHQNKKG
Method in brief: as §1

[18] = target: T12, ZFP SBS#1246 (synthetic)
T12 chain: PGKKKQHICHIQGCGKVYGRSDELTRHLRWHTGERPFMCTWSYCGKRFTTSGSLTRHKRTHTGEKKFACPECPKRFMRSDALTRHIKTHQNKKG
Method in brief: as §1

[19] = target: T13, ZFP SBS#1271 (synthetic)
T13 chain: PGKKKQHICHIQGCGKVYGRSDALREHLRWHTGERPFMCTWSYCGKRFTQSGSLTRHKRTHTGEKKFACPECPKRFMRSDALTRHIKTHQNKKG
Method in brief: as §1

[20] = target: ZFP SBS#1275 (synthetic)
Sequence of ZFP SBS#1275 (synthetic) (chain, as listed by the source): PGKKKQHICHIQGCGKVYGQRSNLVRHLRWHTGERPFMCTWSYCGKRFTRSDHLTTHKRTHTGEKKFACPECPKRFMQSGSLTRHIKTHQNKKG
Method in brief: as §1

[21] = target: ZFP SBS#1274 (synthetic)
Sequence of ZFP SBS#1274 (synthetic) (chain, as listed by the source): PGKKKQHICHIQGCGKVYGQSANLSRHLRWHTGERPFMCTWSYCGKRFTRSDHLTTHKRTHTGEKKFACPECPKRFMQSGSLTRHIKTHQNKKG
Method in brief: as §1

[22] = target: T14, ZFP SBS#488 (synthetic)
T14 chain: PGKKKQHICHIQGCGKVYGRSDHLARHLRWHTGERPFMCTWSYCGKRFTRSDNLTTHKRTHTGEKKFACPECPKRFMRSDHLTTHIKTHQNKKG
Method in brief: as §1

[23] = target: T15, ZFP SBS#1242 (synthetic)
T15 chain: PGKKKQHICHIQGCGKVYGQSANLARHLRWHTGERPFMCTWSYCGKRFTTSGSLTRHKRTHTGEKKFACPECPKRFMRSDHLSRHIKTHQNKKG
Method in brief: as §1

[24] = target: T16, ZFP SBS#1243 (synthetic)
T16 chain: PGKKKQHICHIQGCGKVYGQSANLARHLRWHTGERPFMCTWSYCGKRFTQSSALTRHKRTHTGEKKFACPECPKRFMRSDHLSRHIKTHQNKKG
Method in brief: as §1

[25] = target: T17, ZFP SBS#261 (synthetic)
T17 chain: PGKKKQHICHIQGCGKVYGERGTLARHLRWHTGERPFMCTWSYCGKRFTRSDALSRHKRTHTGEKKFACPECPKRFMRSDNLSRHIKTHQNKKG
Method in brief: as §1

[26] = target: T18, ZFP SBS#1265 (synthetic)
T18 chain: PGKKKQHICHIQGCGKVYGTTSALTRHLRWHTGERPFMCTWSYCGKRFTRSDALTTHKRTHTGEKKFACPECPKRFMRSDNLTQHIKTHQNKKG
Method in brief: as §1

[27] = target: T19, ZFP SBS#1264 (synthetic)
T19 chain: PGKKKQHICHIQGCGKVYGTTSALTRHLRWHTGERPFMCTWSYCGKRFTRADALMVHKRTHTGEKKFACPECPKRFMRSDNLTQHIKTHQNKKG
Method in brief: as §1

[28] = target: T20, ZFP SBS#1269 (synthetic)
T20 chain: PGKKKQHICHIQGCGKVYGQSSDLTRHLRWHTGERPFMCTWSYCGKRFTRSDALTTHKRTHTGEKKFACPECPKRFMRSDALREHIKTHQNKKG
Method in brief: as §1

[29] = target: T21, ZFP SBS#1268 (synthetic)
T21 chain: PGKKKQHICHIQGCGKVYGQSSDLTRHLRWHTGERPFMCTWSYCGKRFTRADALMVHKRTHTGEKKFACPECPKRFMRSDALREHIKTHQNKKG
Method in brief: as §1

[30] = target: T22, ZFP SBS#1249 (synthetic)
T22 chain: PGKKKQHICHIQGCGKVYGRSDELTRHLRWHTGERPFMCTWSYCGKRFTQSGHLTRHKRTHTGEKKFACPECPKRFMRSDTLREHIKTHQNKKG
Method in brief: as §1

[31] = target: T23, ZFP SBS#1253 (synthetic)
T23 chain: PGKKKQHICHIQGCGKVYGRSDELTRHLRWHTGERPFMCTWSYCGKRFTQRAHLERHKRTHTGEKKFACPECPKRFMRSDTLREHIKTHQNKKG
Method in brief: as §1

[32] = target: ZFP SBS#490 (synthetic)
Sequence of ZFP SBS#490 (synthetic) (chain, as listed by the source): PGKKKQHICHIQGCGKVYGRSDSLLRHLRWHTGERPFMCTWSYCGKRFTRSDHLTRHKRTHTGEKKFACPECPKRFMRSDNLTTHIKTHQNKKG
Method in brief: as §1

[33] = target: T24, ZFP SBS#541 (synthetic, UniProt P08047)
T24 chain: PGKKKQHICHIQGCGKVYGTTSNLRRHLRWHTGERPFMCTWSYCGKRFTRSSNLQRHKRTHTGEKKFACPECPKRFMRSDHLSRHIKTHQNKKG
Method in brief: as §1

[34] = target: T25, ZFP SBS#1258 (synthetic, UniProt P08047)
T25 chain: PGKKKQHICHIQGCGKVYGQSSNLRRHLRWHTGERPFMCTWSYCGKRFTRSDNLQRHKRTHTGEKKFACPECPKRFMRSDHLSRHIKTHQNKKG
Method in brief: as §1

[35] = target: T26, ZFP SBS#1257 (synthetic, UniProt P08047)
T26 chain: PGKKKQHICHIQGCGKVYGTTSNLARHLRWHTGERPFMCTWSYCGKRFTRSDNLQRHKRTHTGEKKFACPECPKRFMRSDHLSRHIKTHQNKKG
Method in brief: as §1

B1: GTCGCGGTG (dsDNA)
DNA 1: GTCGCGGTG
DNA 2: CACCGCGAC
B1 gave a Kd [1] of 0.044 nM and a Kd [2] of 0.102 nM.

B2: GAGTGTGTG (dsDNA)
DNA 1: GAGTGTGTG
DNA 2: CACACACTC
For B2, the Kd [3] was 1.5 nM and the Kd [4] was 1.8 nM.

B3: GGGGAGGCA (dsDNA)
DNA 1: GGGGAGGCA
DNA 2: TGCCTCCCC
Binder B3 has a Kd [5] of 0.056 nM.

B4: ACGTAGTAG (dsDNA)
DNA 1: ACGTAGTAG
DNA 2: CTACTACGT
For B4, the Kd [6] was 0.23 nM, the Kd [7] was 1.4 nM and the Kd [8] was 0.69 nM. It also gave a Kd [9] of 0.69 nM and a Kd [10] of 0.118 nM.

B5: GAAGGAGAG (dsDNA)
DNA 1: GAAGGAGAG
DNA 2: CTCTCCTTC
B5 showed a Kd [11] of 0.31 nM and a Kd [12] of 0.065 nM.

B6: GAGTAGGCA (dsDNA)
DNA 1: GAGTAGGCA
DNA 2: TGCCTACTC
Work on B6 yielded a Kd [13] of 0.065 nM, a Kd [14] of 0.101 nM and a Kd [15] of 0.019 nM.

B7: GAAGAGGGG (dsDNA)
DNA 1: GAAGAGGGG
DNA 2: CCCCTCTTC
Binder B7 has a Kd [16] of 0.421 nM.

B8: GTGGTTGCG (dsDNA)
DNA 1: GTGGTTGCG
DNA 2: CGCAACCAC
Work on B8 yielded a Kd [17] of 0.117 nM and a Kd [18] of 0.051 nM.

B9: GTGGCACTG (dsDNA)
DNA 1: GTGGCACTG
DNA 2: CAGTGCCAC
B9 showed a Kd [19] of 0.915 nM.

B10: GCATGGGAA (dsDNA)
DNA 1: GCATGGGAA
DNA 2: TTCCCATGC
Work on B10 yielded a Kd [20] of 0.326 nM and a Kd [21] of 0.306 nM.

B11: TGGTAGGGGG (dsDNA)
DNA 1: TGGTAGGGGG
DNA 2: CCCCCTACCA
B11 was tested, and the Kd [22] was 35 nM.

B12: GGGGTTGAA (dsDNA)
DNA 1: GGGGTTGAA
DNA 2: TTCAACCCC
Work on B12 yielded a Kd [23] of 0.02 nM and a Kd [24] of 0.101 nM.

B13: GAGGTGGCC (dsDNA)
DNA 1: GAGGTGGCC
DNA 2: GGCCACCTC
Binder B13 has a Kd [25] of 0.5 nM.

B14: AAGTTGGTT (dsDNA)
DNA 1: AAGTTGGTT
DNA 2: AACCAACTT
Binder B14 has a Kd [26] of 0.077 nM and a Kd [27] of 0.21 nM.

B15: CTGTTGGCT (dsDNA)
DNA 1: CTGTTGGCT
DNA 2: AGCCAACAG
In the case of B15, the Kd [28] is reported as 12.3 nM and the Kd [29] is reported as 1.52 nM.

B16: CCGGGAGCG (dsDNA)
DNA 1: CCGGGAGCG
DNA 2: CGCTCCCGG
B16 showed a Kd [30] of 0.26 nM and a Kd [31] of 0.228 nM.

B17: TAGGGGGTGG (dsDNA)
DNA 1: TAGGGGGTGG
DNA 2: CCACCCCCTA
Binder B17 has a Kd [32] of 1.5 nM.

B18: GGGGAGGAT (dsDNA)
DNA 1: GGGGAGGAT
DNA 2: ATCCTCCCC
Binder B18 has a Kd [33] of 3 nM, a Kd [34] of 2 nM and a Kd [35] of 1 nM.
